# Test results reported in patent US6353153B1, “Enhanced transport with a plastid membrane transport protein” (priority 1996, dated 2002).
# Key:
# [1] = tested on: β-lactamase transport in E. coli MM52 (secAts); test: Sodium azide sensitivity of β-lactamase transport in MM52; format: cell-based, Escherichia coli; conditions: MM52 strain, 30° C., two hours, sodium azide 0 to 1 mM
# Method: Overnight cultures of MM52-Bce44B, MM52-Oee1-Dhfr, MC4100-Bce44B, and MC4100-Oee1-Dhfr cells were used as inocula for parallel experiments. These freshly inoculated cultures were grown at 30° C. for two hours in media containing increasing concentrations of sodium azide (from 0 to 1 MM). Cells were then harvested, and normalized according to cell number before analysis. […] Azide sensitivity characteristics were firther assessed by growing both wild-type and mutant bacterial lines in the media containing 0.5 mM sodium azide for 0, 1 and 2 hr.
# Sensitivity of the bacterial strains to sodium azide was determined in the same manner as outlined in Oliver el al. (1990) Proc. Natl. Acad. Sci. USA 87:8227. Changes to β-lactamase transport activity in response to sodium azide was used as a monitor of differences in the protein translocation activity of Bce44B- versus Oee1-Ohfr-expressing cells. […]
# The pBCE44B and pOEEIDHFR plasmids were introduced into E. coli strain MM52 (Oliver and Beckwith, (1981) Cell 25:765) by electroporation using the BioRad Gene Pulser and the supplied protocols for E. coli strains. […] The plasmid-harboring MM52 strains were grown in LB-ampicillin broth and analyzed in the same manner as the JM109(DE3) strains described above.
# Brassica napus = test: Seed size of transgenic plants carrying the CaMV-Bce44B-NOS transgene; format: in vivo; conditions: primary generation of transgenic plants
# Text: (§1) Transgenic plants (Brassica napus, Arabidopsis thaliana and Lycopersicon esculentum) with altered plastid protein transport capacity were produced by introducing a transgene construct consisting of DNA encoding the Bce44B protein and a 5′ untranslated region immediately upstream of the Bce44B coding sequence. Expression of the construct was obtained by linking the cauliflower mosaic virus 35S promoter (Odell, J. T. et al. (1985) Nature 313:810) upstream. Transcriptional termination was facilitated by the gene encoding nopaline synthase (NOS) found in Agrobacterium Ti plasmids or their derivatives such as pBI101 (Clontech). Construction of the 35S CAMV-Bce44B-NOS transgene construct is diagrammed in FIG. 6.
# (§2) Agrobacterium strains containing the pEND4K-CAMV-Bce44B-NOS plasmid were used to transform plants following a leaf disc transformation protocol, such as the one described by Horsch et al. (1985) Science 227:1229), or by in planta methods which can include the seed transformation protocol reported by Feldmann and Marks (1987) Mol. Gen. Genet. […]
# Lycopersicon esculentum = test: as above; format: in vivo; conditions: primary generation of transgenic plants
# Text: as §1, §2
molecule,measurement,setting,value
"Bce44B: plastid transport protein, Brassica napus 44 kDa chloroplast envelope protein, member of Com44/Cim44, encoded by SEQ ID NO:1 (protein) MQTAMKTMMNQMNTQNSQFNNPGFPTGAGAGAGSPFPFPFPPQTSPTTSPFQPQSQSSGATVDLTATKVDRPPVSKPQPTPIPPTKSIEVYKPSVVVEENKAMKEEKNYAFEDVSPEETTKESPFSNYEEVSETSAPKETRLFDDVLQNGAAPANGATASDVFQSLGAGKGWAGGSVEVLEKMIEYPTFQKMLYPHLPEEMRNPESFKWVRKNPQYRQQLQDMLNNMSESGEWDKRMTETLKNFDPNSPEVKQGFDQLGLTPEEVISKIMENPDVSMAFQNPRVEAALMDCSENPMNIMKYQNDKEVMDVFNKISQLFPGLTG",sodium azide concentration at which precursor form of β-lactamase appears,[1],0.25 to 0.375 mM
same,seed size relative to wildtype counterparts or pEND4K-only control plants,Brassica napus,approximately twice
same,seed size relative to wildtype counterparts or pEND4K-only control plants,Lycopersicon esculentum,approximately twice
